Laboratory results published in patent publication US20250304655A1.

Target: human hemoglobin (HbA) (human) (UniProt P69905)
Assay: cell-based or functional assay

Sequence of human hemoglobin (HbA) (human) (P69905 2-142 limits assumed, chain 1 of 2): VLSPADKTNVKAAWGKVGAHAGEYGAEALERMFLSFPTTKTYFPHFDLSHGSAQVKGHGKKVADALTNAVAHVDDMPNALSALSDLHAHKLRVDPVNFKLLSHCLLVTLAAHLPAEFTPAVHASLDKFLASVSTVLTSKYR
Sequence of human hemoglobin (HbA) (human) (P68871 2-147 limits assumed, chain 2 of 2, further chain): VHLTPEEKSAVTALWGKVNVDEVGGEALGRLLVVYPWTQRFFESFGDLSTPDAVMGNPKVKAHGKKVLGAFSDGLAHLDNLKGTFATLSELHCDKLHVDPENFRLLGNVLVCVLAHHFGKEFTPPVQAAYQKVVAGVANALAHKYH

- median relative relaxation: 83%
Substance: recHp1-1
